Assay results published in patent US20180318435A1 (UNITED STATES OF AMERICA AS REPRESENTED BY THE SECRETARY …, published 2018).

T1: BCMA-rFc fusion protein (extracellular domain of human BCMA, residues 1-54, fused to rabbit IgG Fc) (human; rabbit, UniProt Q02223 1-54)
T1 construct: range 1-54; also called recombinant BCMA-rFc; not shown: rabbit IgG heavy chain hinge region and Fc region (CH2 and CH3 domains), from vector pFUSE-rFc1 (InvivoGen); limits not
T1 sequence (looked up): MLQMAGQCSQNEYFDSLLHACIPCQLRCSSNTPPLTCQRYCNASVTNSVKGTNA

T2: full-length human BCMA (TNFRSF17, CD269) on the cell surface (human, UniProt Q02223 1-184)
T2 sequence (looked up): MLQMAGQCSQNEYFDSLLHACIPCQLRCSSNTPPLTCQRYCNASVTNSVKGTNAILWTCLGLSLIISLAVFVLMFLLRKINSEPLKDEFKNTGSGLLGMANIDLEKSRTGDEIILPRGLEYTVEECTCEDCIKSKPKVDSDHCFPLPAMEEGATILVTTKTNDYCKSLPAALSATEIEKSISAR


Experiments:
[1] = biological target: T1, BCMA-rFc fusion protein (extracellular …); assay: bio-layer interferometry (BLITZ), BCMA-rFc immobilized by amine coupling, mAb in solution
Method: The binding kinetics of MAbs to BCMA were measured by bio-layer interferometry using a BLITZ (ForteBio, Menlo Park, Calif.) instrument. According to the manufacturer's instructions, BCMA-rFc were immobilized on amine-reactive second-generation biosensors by amine coupling following the activation of the sensor surface with N-hydroxysuccinimide (NHS) and N-ethyl-N-(3-dimethylaminopropyl) carbodiimide hydrochloride (EDC). Serial dilutions of MAbs were run across sensor surface at five different concentration in PBS (pH 7.4). The sensorgram data set was globally fit using the built-in BLITZ software to determine association rate constant (Kₐ), dissociation rate constant (Kd), and affinity constant (KD).
Real-time biomolecular interaction analyses were performed with BLITZ software.

[2] = biological target: full-length human BCMA (TNFRSF17, CD269) on the cell surface (human) (UniProt Q02223); assay: cell-based or functional assay
[3] = biological target: BCMA (target of the LMB70 affinity measurement; not named, form not stated) (UniProt Q02223); assay: affinity measurement after the first labeling; method and target not stated
[4] = biological target: T2, full-length human BCMA (TNFRSF17, …); assay: cell-based or functional assay

Row | Binder | Kd [1] | koff [1] | kon [1] | IC50 (ng/ml), WST assay, H929 cells [2] | IC50 (ng/ml), WST assay, JJN-3 cells [2] | IC50 (ng/ml), WST assay, KMS-18 cells [2] | IC50 (ng/ml), WST assay, LP-1 cells [2] | IC50 (ng/ml), WST assay, RPMI-8226 cells [2] | IC50 (ng/ml), WST assay, U266B cells [2] | IC50, WST assay, H929 cells [2] | Bmax [3] | IC50 (ng/ml), WST assay, H929 cells [4] | IC50 (ng/ml), WST assay, JJN-3 cells [4] | IC50 (ng/ml), WST assay, RPMI-8226 cells [4] | IC50 (ng/ml), WST assay, U266B cells [4]
1 | BM24 anti-BCMA monoclonal antibody (antibody, V domains shown, Mouse hybridoma mAb, IgG1 with a kappa light chain) VH: EVQLQQSGPELVKPGASVKMSCKASGNTLTNYVIHWMKQMPGQGLDWIGYILPYNDLTKYNEKFTGKATLTSDKSSSSAYMELNSLTSEDSAVYYCTRWDWDGFFDPWGQGTTLTVSS VL: DIVMTQSPLSLPVSLGDQASISCRSTQSLVHSNGNTHLHWYLQRPGQSPKLLIYSVSNRFSEVPDRFSASGSGTDFTLKISRVEAEDLGVYFCSQTSHIPYTFGGGTKLEIKR | < 1 pM | < 1e-07 s⁻¹ | 297000 M⁻¹ s⁻¹ | – | – | – | – | – | – | – | – | – | – | – | –
2 | LMB70: BM306-Fab-LR-GGS immunotoxin (protein, part only; not given: Fab constant domains and toxin part, Fused to a Pseudomonas exotoxin domain III variant (PE-LR-GGS), which the letters do not carry.) VH: EVQLQQSGPELVKPGASVKISCKTSGYTFTEYTINWVKQSHGKSLEWIGDIYPDNYNIRYNQKFKGKATLTVDKSSSTAYMELRSLSSEDSAIYYCANHDFFVFWGQGTLVTVSA VL: DIQMTQATSSLSASLGDRVTINCRTSQDISNHLNWYQQKPDGTVKLLIYYTSRLQSGVPSRFSGSGSGTDYSLTISNLEQEDIGTYFCHQGNTLPPTFGGGTKLEIK | – | – | – | 1.1 ng/mL | 4 ng/mL | 65 ng/mL | 20 ng/mL | 5.1 ng/mL | 5 ng/mL | 1 to 1.5 ng/mL | 2220 | – | – | – | –
3 | BM306 anti-BCMA monoclonal antibody (antibody, V domains shown, Mouse hybridoma mAb, IgG1 with a kappa light chain) VH: EVQLQQSGPELVKPGASVKISCKTSGYTFTEYTINWVKQSHGKSLEWIGDIYPDNYNIRYNQKFKGKATLTVDKSSSTAYMELRSLSSEDSAIYYCANHDFFVFWGQGTLVTVSA VL: DIQMTQATSSLSASLGDRVTINCRTSQDISNHLNWYQQKPDGTVKLLIYYTSRLQSGVPSRFSGSGSGTDYSLTISNLEQEDIGTYFCHQGNTLPPTFGGGTKLEIKR | < 1 pM | < 1e-07 s⁻¹ | 415000 M⁻¹ s⁻¹ | – | – | – | – | – | – | – | – | > 1000 ng/mL | > 1000 ng/mL | > 1000 ng/mL | > 1000 ng/mL
